Data set [1] addresses T1, chymase (Homo sapiens, UniProt P23946 P23946:22-247).
T1 sequence: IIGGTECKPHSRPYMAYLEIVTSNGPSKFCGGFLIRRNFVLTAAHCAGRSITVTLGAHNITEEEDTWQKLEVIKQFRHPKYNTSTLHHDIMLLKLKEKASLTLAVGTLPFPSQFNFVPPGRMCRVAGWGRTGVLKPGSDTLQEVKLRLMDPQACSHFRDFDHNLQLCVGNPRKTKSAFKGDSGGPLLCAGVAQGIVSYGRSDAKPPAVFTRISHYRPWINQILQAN
Kind of data set: inhibition; angiotensin I; recombinant 0.089. The conditions noted are these: tags: human skin mast cell, Calbiochem. As to the method: (§1) The total volume of solution for an enzyme reaction in the assay was set to 50 μL, and the reaction was performed in solution C buffer. First, 0.3-0.75 ng of chymase (recombinant, (manufactured by SIGMA) or native (manufactured by Calbiochem)) was diluted with solution C to give 5 μL thereof. Here, the recombinant is chymase expressed by yeast, and the native is chymase purified from human skin mast cell. The nucleic acid was serially diluted with solution C at a concentration of 0.0027-2 μM to give 25 μL thereof. The chymase solution (5 μL) and the nucleic acid solution (25 μL) were mixed, and the mixture was incubated at 37° C. for 5 min. […] The whole mixture was centrifuged at 4° C., 14000 rpm for 10 min, and the supernatant (30 μL) was used for the next fluorescence induction reaction.
(§2) The above-mentioned supernatant (30 μL) was added to a 96 well plate (black, manufactured by Costar), a solution (15 μL) of 2% o-phthalaldehyde (manufactured by SIGMA) in methanol and 0.3M NaOH solution (170 μL) were added to each well, and the mixture was incubated at room temperature for 10 min. […] The plate was set on a microplate reader SpectraMax190 (manufactured by Molecular device) and the fluorescence intensity was measured at an excitation wavelength of 355 nm and a fluorescence wavelength of 460 nm.

The target of data set [2] is T1, chymase. Put plainly: inhibition; angiotensin I; recombinant 0.078. The conditions noted are these: tags: human skin mast cell, Calbiochem. As to the method: as §1, §2
For data set [3], the target named is T1, chymase. Kind of data set: inhibition; angiotensin I; recombinant 0.108. The settings on record: tags: human skin mast cell, Calbiochem. Here is the method:
as §1, §2

In data set [4] the target is T1, chymase. Kind of data set: inhibition; angiotensin I; recombinant 0.207. The settings on record: tags: human skin mast cell, Calbiochem. Here is the method: as §1, §2
For data set [5], the target named is T1, chymase. Put plainly: inhibition; Suc-AAPF-MCA, 37 C, solution C. The settings on record: tags: recombinant, expressed in yeast, SIGMA. Here is the method:
Here, Suc is a protecting succinyl group, and MCA is a 4-methylcoumaryl-7-amide group; upon cleavage of the C-terminal side of phenylalanine, AMC (7-amino-4-methyl-coumarine) is released. By detecting the fluorescence of this AMC, the enzyme activity of chymase can be determined. The assay was performed using a 96-well plate (F16 Black Maxisorp Fluoronunc, manufactured by Nunc), with a reaction mixture volume of 100 μL, in solution C as a buffer solution. First, each nucleic acid was serially diluted to 0.0027-2 μM concentrations in solution C to obtain 50 μL solutions. After 10 μL of the 1 mM substrate prepared in solution C was added thereto, the plate was set to the microplate reader SpectraMax190 (manufactured by Molecular Devices Corporation), and incubated at 37° C. for 5 minutes. Separately, 0.05 μg (or 0.005 μg) of chymase (recombinant, manufactured by SIGMA) was diluted in solution C to obtain a 40 μL chymase solution, and incubated at 37° C. for 5 minutes. The chymase solution was added to the mixture of the nucleic acid and substrate to initiate an enzyme reaction. The final chymase concentration in the reaction mixture was 16.7 nM (or 1.67 nM), the final substrate concentration being 100 μM. The plate containing the reaction mixture was set to the microplate reader SpectraMax190 (manufactured by Molecular Devices Corporation), and examined for time-dependent changes in the fluorescence intensity at 37° C. for 5 minutes (or 30 minutes) (excitation wavelength 380 nm, detection wavelength 460 nm). A linear approximation of the increase in the fluorescence of the AMC released from the substrate by chymase activity was generated, and its slope was taken as the initial velocity […]. For control, samples were treated and analyzed in the same manner in two cases: use of a 30N or 40N (a nucleotide of 30 or 40 consecutive bases represented by N; N is A, G, C or T) nucleic acid pool (negative control), and use of chymostatin, a known chymotrypsin-like serine protease inhibitor (positive control). Taking the initial reaction velocity without the nucleic acid and inhibitor (V_0) as a 100% enzyme activity, the inhibitory rate of each test substance was calculated using the following equation: […]
The chymase inhibitory activity was measured in the same manner as in Example 3.

The target of data set [6] is T1, chymase. Put plainly: inhibition; angiotensin I; recombinant 0.085. The conditions noted are these: tags: human skin mast cell, Calbiochem.
The target of data set [7] is T1, chymase. Kind of data set: inhibition; angiotensin I; recombinant 0.326. The conditions noted are these: tags: human skin mast cell, Calbiochem. Here is the method:
as §1, §2

The target of data set [8] is T1, chymase. Kind of data set: inhibition; angiotensin I; recombinant 0.210. The conditions noted are these: tags: human skin mast cell, Calbiochem. Here is the method:
as §1, §2

In data set [9] the target is T1, chymase. Put plainly: inhibition; angiotensin I; recombinant 0.055. The settings on record: tags: human skin mast cell, Calbiochem. As to the method:
as §1, §2

Data set [10] has as its target T1, chymase. Put plainly: inhibition; angiotensin I; recombinant 0.137. The settings on record: tags: human skin mast cell, Calbiochem.
For data set [11], the target named is T1, chymase. Put plainly: inhibition; angiotensin I; recombinant 0.022. The settings on record: tags: human skin mast cell, Calbiochem. Here is the method:
as §1, §2

The target of data set [12] is T1, chymase. Kind of data set: inhibition; angiotensin I; recombinant 0.361. The settings on record: tags: human skin mast cell, Calbiochem. As to the method: as §1, §2

The term IC50 denotes the concentration needed to halve the response being measured.

With GGGUUAGAUAGAGUUAAAAACCC (ssRNA, 2'-F U and C; 2'-OMe 1-3,7,10,13,16-20; 5' and 3' idT) [56(31)], the 50% inhibitory concentration (IC50) with chymase [1] stood at 266 nM. With GGGUUAGAUAGAGUUAAAAACCC (ssRNA, 2'-F U and C; 2'-OMe 1-3,10,13,16-20; 5' and 3' idT) [56(32)], the IC50 with chymase [2] worked out at 185 nM. With GGGUUAGAUAGAGUUAAAAACCC (ssRNA, 2'-F U and C; PS 5-6) [56(18)], the IC50 with chymase [3] was found to be 174 nM. Regarding GGGUUAGAUAGAGUUAAAAACCC (ssRNA, 2'-F U and C; 5' and 3' idT) [56(1)], the IC50 in the data set with chymase [4] was 404 nM. With GGGUUAGAUAGAGUUAAAAACCC (ssRNA, 2'-F U and C; 2'-OMe 1-3,8,10,13,16-20; PS 6-7; 5' and 3' idT) [56(33)], the IC50 with chymase [5] worked out at 35 nM; with chymase [6], 291 nM.

With GGGUUAGAUAGAGUUAAAAACCC (ssRNA, 2'-F U and C; 2'-OMe 1-3,7,8,10,13,16-20; 5' and 3' idT) [56(26)], the IC50 with chymase [7] was 743 nM; with chymase [5], 54 nM. For the molecule GGGUUAGAUAGAGUUAAAAACCC (ssRNA, 2'-F U and C; 2'-OMe 1-3,8,10,13,16-20; 5' and 3' idT) [56(30)], the figures for the IC50 with chymase [5] and in the data set with chymase [8] were 34 nM and 521 nM, respectively. Regarding GGGUUAGAUAGAGUUAAAAACCC (ssRNA, 2'-F U and C; PS 6-7) [56(19)], in the data set with chymase [9], the IC50 stood at 130 nM. Take GGGUUAGAUAGAGUUAAAAACCC (ssRNA, 2'-F U and C; 2'-OMe 1-3,7,8,10,13,16-20; PS 6-7; 5' and 3' idT) [56(28)]: the figures for the IC50 with chymase [5] and with chymase [10] were 44 nM and 410 nM, respectively.

B1: SEQ 14 (ssRNA)
RNA: GGGACGGUAGGAAUUCUCGUUCCUGACAGCAUUUGAGAUAGAUUUAAACAAACGCACAUAGAAGAGCGGCCGC
modifications: 2'-F U and C
As to B1, in the data set with chymase [11], the IC50 is 63 nM.

Take GGGUUAGAUAGAGUUAAAAACCC (ssRNA, 2'-F U and C; 2'-OMe 1-3,7,8,10,13,16-20) [56(21)]: the IC50 with chymase [12] came to 722 nM; with chymase [5] it was 45 nM.

The values above are taken from US9012420B2, “Aptamer for chymase, and use thereof” (Ribomic Inc., priority 2009, dated 2015).
